Data reported in US20180030135A1, “HUMAN MONOCLONAL ANTIBODIES AGAINST OREXIN RECEPTOR TYPE 1” (INSERM (INSTITUT NATIONAL DE LA SANTÉ ET DE LA RECHERCHÉ …, priority 2015, published 2018).
Changes are numbered by the printed parent chain.

Experiments:
[1] = target: T1, orexin receptor type 1 (OX1R) (human, UniProt O43613 1-425); assay: competitive inhibition of 125I-OxA binding to HEK-OX1R cells
T1 construct: whole, on cells; also called HCTR1; hypocretin receptor type 1
T1 sequence (looked up): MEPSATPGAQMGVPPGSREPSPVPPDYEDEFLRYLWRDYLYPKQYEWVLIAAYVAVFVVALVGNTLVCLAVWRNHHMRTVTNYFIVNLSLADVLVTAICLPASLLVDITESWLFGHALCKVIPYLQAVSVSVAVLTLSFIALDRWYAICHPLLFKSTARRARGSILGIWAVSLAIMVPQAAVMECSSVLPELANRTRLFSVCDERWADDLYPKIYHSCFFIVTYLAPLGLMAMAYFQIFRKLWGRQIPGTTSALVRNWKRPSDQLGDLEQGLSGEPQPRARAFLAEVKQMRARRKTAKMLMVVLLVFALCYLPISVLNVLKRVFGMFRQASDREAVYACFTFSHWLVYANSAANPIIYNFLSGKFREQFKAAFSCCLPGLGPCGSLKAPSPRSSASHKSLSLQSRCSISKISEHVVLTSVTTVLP

rat OX1R = target: T2, rat OX1R (rat, UniProt P56718 1-416); assay: told from effects on cells transfected with rat OX1R (FIG. 4)
T2 construct: whole, on cells; also called CHO-ratOX1R; OX1R of rat
T2 sequence (looked up): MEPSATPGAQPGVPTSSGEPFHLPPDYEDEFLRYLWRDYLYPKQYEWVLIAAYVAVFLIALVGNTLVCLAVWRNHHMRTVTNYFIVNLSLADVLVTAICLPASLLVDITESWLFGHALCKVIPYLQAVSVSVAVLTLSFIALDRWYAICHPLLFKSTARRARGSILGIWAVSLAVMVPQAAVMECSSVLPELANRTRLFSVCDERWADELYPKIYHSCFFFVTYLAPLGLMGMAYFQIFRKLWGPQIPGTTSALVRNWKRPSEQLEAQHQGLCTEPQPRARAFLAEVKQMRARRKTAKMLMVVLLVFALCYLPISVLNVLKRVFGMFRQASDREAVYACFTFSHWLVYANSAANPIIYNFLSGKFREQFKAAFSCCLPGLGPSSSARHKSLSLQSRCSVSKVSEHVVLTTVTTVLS

mouse OX1R = target: T3, mouse OX1R (mouse, UniProt P58307 1-416); assay: told from effects on cells transfected with mouse OX1R (FIG. 4)
T3 construct: whole, on cells; Legend says HEK-mouseOX1R, the text says CHO cell lines transfected with OX1R of mouse or rat; also called HEK-mouseOX1R; OX1R of mouse
T3 sequence (looked up): T2 sequence (looked up) with H116Q, R205H, F221I, G232A, P245R, S383G

[2] = test system: HEK-OX1R cells expressing recombinant OX1R; assay: Cell growth of HEK-OX1R cells (cell counting); type: cell-based, human; conditions: 0.1 μM, 48 h
HEK-mouseOX1R = assay: Cell growth / apoptosis of cells transfected with mouse OX1R; type: cell-based; conditions: 0.1 μM, 48 h, FIG. 4
Protocol: Cells were treated for 48 h with 0.1 μM of each compound and then cells were counted. Results were expressed as the percentage of untreated cell number (Control).
The development of antibodies directed against OX1R were produced by a phage display strategy and the antibody selection was performed by using HEK and HEK stably expressing OX1R (HEK-OX1R) cell lines. As a first step, a batch of 7 different antibodies named B4, B10, C1, C2, D4, E7 and H7 was tested for their ability to inhibit the cell growth of HEK-OX1R. […] In contrast, B4, B10, D4, E7 and. […] As previously described orexins (A & B) induced a mitochondrial apoptosis mediated by an entirely novel mechanism, not related to Gq-mediated phospholipase C activation. In fact, orexins induced the tyrosine phosphorylation of two immunoreceptor tyrosine-based inhibitory motifs (ITIMs) located in the OX1R sequence. The resulting phosphorylated receptor could then recruit and activate the phosphotyrosine phosphatase, SHP-2, which is responsible for mitochondrial apoptosis, involving cytochrome c release from mitochondria to cytosol and caspase-3 and caspase-7 activation. Here, we tested the effect of SHP inhibitor (NSC 87877) on the ability of anti-OX1R to inhibit the cellular growth of HEK-OX1R (FIG. 3).

CHO-ratOX1R = assay: Cell growth / apoptosis of cells transfected with rat OX1R; type: cell-based; conditions: 0.1 μM, 48 h, FIG. 4
SW48 cells = assay: Cell growth of colon cancer cell line SW48; type: cell-based; conditions: 0.1 μM, 48 h
Protocol: (§1) A. SW48 and AsPC-1 cells. B. LoVo and HCT-116 cells. Cells were treated for 48 h with 0.1 μM of each compound and then cells were counted. Results were expressed as the percentage of untreated cell number (Control).
(§2) We have tested the ability of antibodies to inhibit the cellular growth in cancer cell lines derived from colon cancer (SW48, LoVo and HCT-116 cells) and pancreas cancer (AsPC-1 cells). […] D4 and H7 have a weak effect. […] As previously described (see above) orexins are able to induce a mitochondrial apoptosis in cancer cell lines. We test the ability of antibodies to induce apoptosis in HEK-OX1R cells and colonic cancer cell line LoVo. […] This effect was dose-dependent. Indeed when HEK-OX1R cells were treated with 0.01μM of C2 antibody, cell apoptosis was only of 6±0.7% of total cells.

LoVo cells = assay: Cell growth of colon cancer cell line LoVo; type: cell-based; conditions: 0.1 μM, 48 h
Protocol: as §1, §2

AsPC-1 cells = assay: Cell growth of pancreas cancer cell line AsPC-1; type: cell-based; conditions: 0.1 μM, 48 h
Protocol: as §1, §2

[3] = test system: HEK-OX1R cells expressing recombinant OX1R; assay: Apoptosis in HEK-OX1R cells (annexin V-PE binding, Guava nexin kit); type: cell-based, human; conditions: 0.1 μM, 48 h

B1: C1 antibody (antibody, V domains shown)
VH: EVQLVESGGSLVKPGGSLRLSCAASGFTFSNYYMNWVRQAPGKGLEWISYISGSSRNIYYADFVKGRFTISRDNATNSLYLQMNSLRAEDTAVYYCVRSNYDGMDVWGRGTLVTVSS
VL: QSVLTQPASVSGSPGQSITISCAGTSSDVGGSNYVSWYQQHPGKAPKLMIYSDSYRPSGVSNRFSGSKSGNTASLTISGLQAEDEADYYCSSYTYYSTRVFGGGTKLAVLG
notes: Human anti-OX1R antibody from phage display
- IC50 [1]: ~5 µM
- binding result (rat OX1R): binds
- binding result (mouse OX1R): binds

B2: C1: human monoclonal anti-OX1R antibody from phage display; VH SEQ ID NO:1, VL SEQ ID NO:2 (antibody, V domains shown)
VH: B1 VH
VL: B1 VL
modifications: Synthetic VH sequence of C1; Synthetic VL sequence of C1
- inhibition of HEK-OX1R cellular growth in the presence of SHP inhibitor NSC 87877 ([2]; 50 μM NSC 87877): totally reversed
- reduction of HEK-OX1R cell number (cellular growth inhibition) ([2]; cells counted, versus untreated cells): about 46%±3
- promotion of apoptosis of cells transfected with OX1R of mouse (cross reaction) (HEK-mouseOX1R): able to promote apotosis
- promotion of apoptosis of cells transfected with OX1R of rat (cross reaction) (CHO-ratOX1R): able to promote apotosis
- cell growth inhibition in SW48 cells (SW48 cells): inhibit the cell growth in SW48 cells similarly to OxB
- cell growth inhibition in LoVo cells (LoVo cells): inhibit the cell growth in LoVo cells similarly to OxB
- cell growth inhibition in AsPC-1 cells (AsPC-1 cells): cell growth inhibition similar to OxB effect
- apoptosis in HEK-OX1R cells, % of total cells [3]: 12±1%
